Results on 1 molecule are retold here after article PMC5499591 (Nucleic Acids Research, 2017).

The target of one data set is T1, GST-Mcm10 (wild type) (Saccharomyces cerevisiae, UniProt P32354 1-571).
T1 sequence: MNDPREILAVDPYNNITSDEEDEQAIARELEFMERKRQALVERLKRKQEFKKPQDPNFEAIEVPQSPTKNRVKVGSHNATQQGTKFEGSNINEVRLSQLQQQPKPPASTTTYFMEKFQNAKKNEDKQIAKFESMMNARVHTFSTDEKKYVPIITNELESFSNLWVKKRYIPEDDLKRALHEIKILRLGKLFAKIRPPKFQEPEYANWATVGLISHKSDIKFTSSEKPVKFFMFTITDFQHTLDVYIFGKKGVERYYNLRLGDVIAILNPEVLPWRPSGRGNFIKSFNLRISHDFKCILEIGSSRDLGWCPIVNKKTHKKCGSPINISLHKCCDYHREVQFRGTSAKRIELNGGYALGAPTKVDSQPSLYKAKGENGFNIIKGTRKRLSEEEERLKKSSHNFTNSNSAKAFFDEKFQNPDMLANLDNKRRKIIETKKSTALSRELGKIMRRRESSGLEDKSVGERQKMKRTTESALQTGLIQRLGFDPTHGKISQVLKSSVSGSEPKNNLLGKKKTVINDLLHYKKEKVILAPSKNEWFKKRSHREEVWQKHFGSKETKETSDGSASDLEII
The data set is described as follows: GST pull-down.

The next data set deals with T2, GST-Mcm10-4A (Saccharomyces cerevisiae, UniProt P32354 1-571, I26A;L30A;R37A;L40A).
T2 sequence: T1 sequence with I26A, L30A, R37A, L40A
The data set is described as follows: GST pull-down.

Numbering of substitutions follows the chain as printed.

For ATGTCCTAGCAAGCCAGAATTCGGC (ssDNA) [25mer ssDNA], the binding result with GST-Mcm10 (wild type) and with GST-Mcm10-4A was “binds” in each case.
